# Measured values reported in the supplement of paper PMC9112550, “Optimization of the antimicrobial peptide Bac7 by deep mutational scanning” (BMC Biology, 2022).
# Tested on: Escherichia coli TOP10
# Test: shrunken log2 fold change of peptide-encoding DNA abundance (4.5 h post-induction vs induction); higher = less antimicrobial activity (less host growth inhibition)
# Conditions: time post-induction: 4.5 h; library: site-saturation at positions 5, 18, 19, 20
# 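Further: peptides expressed intracellularly from a pBAD plasmid library in pooled LB shake-flask culture, induced with 0.3% L-arabinose, DNA abundance read by NGS, three biological replicates, DESeq2 with apeglm shrinkage.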
row,Sequence,shrunken log2 fold change
1,RRIRTRPPRLPRPRPRPMPTPRP,0.0982
2,RRIRSRPPRLPRPRPRPGKWPRP,-0.147
3,RRIRERPPRLPRPRPRPVKKPRP,-0.179
4,RRIRNRPPRLPRPRPRPFLVPRP,-0.0697
5,RRIRGRPPRLPRPRPRPKPFPRP,0.601
6,RRIRQRPPRLPRPRPRPDIEPRP,-0.32
7,RRIRWRPPRLPRPRPRPCGVPRP,0.0164
8,RRIRARPPRLPRPRPRPVEHPRP,0.068
9,RRIRARPPRLPRPRPRPVSCPRP,0.473
10,RRIRWRPPRLPRPRPRPLDSPRP,0.0674
11,RRIRARPPRLPRPRPRPCQSPRP,-0.0122
12,RRIRFRPPRLPRPRPRPKVIPRP,-0.212
13,RRIRQRPPRLPRPRPRPHMHPRP,-0.39
14,RRIRLRPPRLPRPRPRPFIDPRP,-0.439
15,RRIRYRPPRLPRPRPRPSWHPRP,-1.12
16,RRIRQRPPRLPRPRPRPAIWPRP,-0.143
17,RRIRVRPPRLPRPRPRPDVRPRP,-0.106
18,RRIRGRPPRLPRPRPRPRPWPRP,0.77
19,RRIRQRPPRLPRPRPRPDYVPRP,0.07
20,RRIRYRPPRLPRPRPRPRKNPRP,-0.268
21,RRIRWRPPRLPRPRPRPGFPPRP,-0.0683
22,RRIRTRPPRLPRPRPRPCRGPRP,-0.398
23,RRIRLRPPRLPRPRPRPMLCPRP,-0.0499
24,RRIRVRPPRLPRPRPRPRPLPRP,0.378
25,RRIRSRPPRLPRPRPRPSYSPRP,0.232

row,Sequence,shrunken log2 fold change
1,RRIRDRPPRLPRPRPRPPITPRP,-0.217
2,RRIRKRPPRLPRPRPRPLTQPRP,0.198
3,RRIRYRPPRLPRPRPRPSSHPRP,-2.24
4,RRIRQRPPRLPRPRPRPCMLPRP,-0.239
5,RRIRYRPPRLPRPRPRPGVLPRP,-0.916
6,RRIRIRPPRLPRPRPRPKHHPRP,-0.366
7,RRIRARPPRLPRPRPRPYHLPRP,-0.0107
8,RRIRQRPPRLPRPRPRPFQDPRP,-0.195
9,RRIRFRPPRLPRPRPRPSWEPRP,-0.0476
10,RRIRPRPPRLPRPRPRPMFCPRP,-0.332
11,RRIRYRPPRLPRPRPRPFDFPRP,-0.409
12,RRIRTRPPRLPRPRPRPIDNPRP,-0.51
13,RRIRVRPPRLPRPRPRPSCNPRP,-0.509
14,RRIRMRPPRLPRPRPRPERSPRP,3.22
15,RRIRYRPPRLPRPRPRPKWIPRP,-0.863
16,RRIRIRPPRLPRPRPRPDCLPRP,0.0966
17,RRIRLRPPRLPRPRPRPDSNPRP,-0.0277
18,RRIRDRPPRLPRPRPRPSPEPRP,0.778
19,RRIRKRPPRLPRPRPRPWMFPRP,-0.000428
20,RRIRFRPPRLPRPRPRPLSNPRP,-0.504
21,RRIRGRPPRLPRPRPRPNQPPRP,0.295
22,RRIRSRPPRLPRPRPRPWKEPRP,-0.0075
23,RRIRRRPPRLPRPRPRPNFQPRP,0.253
24,RRIRIRPPRLPRPRPRPVYGPRP,-0.351
25,RRIRPRPPRLPRPRPRPEKVPRP,-0.127

row,Sequence,shrunken log2 fold change
1,RRIRIRPPRLPRPRPRPYCIPRP,-0.224
2,RRIRMRPPRLPRPRPRPKETPRP,0.201
3,RRIRPRPPRLPRPRPRPFFWPRP,0.559
4,RRIRSRPPRLPRPRPRPKPLPRP,-0.107
5,RRIRNRPPRLPRPRPRPMGWPRP,-0.00822
6,RRIRPRPPRLPRPRPRPSIPPRP,-0.436
7,RRIRCRPPRLPRPRPRPRGYPRP,0.471
8,RRIRMRPPRLPRPRPRPKASPRP,1.97
9,RRIRHRPPRLPRPRPRPGCYPRP,0.0554
10,RRIRMRPPRLPRPRPRPMWWPRP,-0.00447
11,RRIRHRPPRLPRPRPRPHFCPRP,-0.0593
12,RRIRHRPPRLPRPRPRPWNKPRP,-0.111
13,RRIRERPPRLPRPRPRPTLKPRP,-0.197
14,RRIRMRPPRLPRPRPRPGCDPRP,1.85
15,RRIRIRPPRLPRPRPRPETCPRP,0.00626
16,RRIRNRPPRLPRPRPRPAIWPRP,0.13
17,RRIRWRPPRLPRPRPRPNQDPRP,0.0957
18,RRIRNRPPRLPRPRPRPVNFPRP,-0.157
19,RRIRDRPPRLPRPRPRPFVRPRP,-0.234
20,RRIRKRPPRLPRPRPRPSQKPRP,0.0284
21,RRIRVRPPRLPRPRPRPNTQPRP,-0.0658
22,RRIRFRPPRLPRPRPRPWLMPRP,-0.58
23,RRIRNRPPRLPRPRPRPSPQPRP,0.162
24,RRIRVRPPRLPRPRPRPKIGPRP,-0.0842
25,RRIRERPPRLPRPRPRPIKPPRP,-0.363

row,Sequence,shrunken log2 fold change
1,RRIRQRPPRLPRPRPRPVISPRP,0.0289
2,RRIRRRPPRLPRPRPRPRTHPRP,0.108
3,RRIRSRPPRLPRPRPRPDCGPRP,0.0769
4,RRIRGRPPRLPRPRPRPYDGPRP,-0.387
5,RRIRTRPPRLPRPRPRPGQNPRP,0.138
6,RRIRNRPPRLPRPRPRPSTEPRP,0.118
7,RRIRGRPPRLPRPRPRPDRGPRP,-0.123
8,RRIRIRPPRLPRPRPRPMKRPRP,0.0451
9,RRIRGRPPRLPRPRPRPRRRPRP,1.02
10,RRIRSRPPRLPRPRPRPFLTPRP,-0.437
11,RRIRCRPPRLPRPRPRPSCQPRP,-0.375
12,RRIRHRPPRLPRPRPRPEYVPRP,-0.0134
13,RRIRNRPPRLPRPRPRPSYMPRP,-1.71
14,RRIRKRPPRLPRPRPRPAQMPRP,0.139
15,RRIRCRPPRLPRPRPRPGWDPRP,0.257
16,RRIRRRPPRLPRPRPRPIQRPRP,0.168
17,RRIRHRPPRLPRPRPRPAVVPRP,-0.182
18,RRIRWRPPRLPRPRPRPEEMPRP,0.013
19,RRIRARPPRLPRPRPRPKAIPRP,0.496
20,RRIRARPPRLPRPRPRPGSPPRP,0.394
21,RRIRQRPPRLPRPRPRPIYGPRP,-0.00674
22,RRIRNRPPRLPRPRPRPDMMPRP,-0.233
23,RRIRRRPPRLPRPRPRPCNIPRP,-0.373
24,RRIRFRPPRLPRPRPRPTQRPRP,0.98
25,RRIRKRPPRLPRPRPRPEMPPRP,0.668

row,Sequence,shrunken log2 fold change
1,RRIRPRPPRLPRPRPRPGFMPRP,0.048
2,RRIRGRPPRLPRPRPRPIIEPRP,0.863
3,RRIRYRPPRLPRPRPRPGQWPRP,0.136
4,RRIRQRPPRLPRPRPRPSVDPRP,-0.00902
5,RRIRIRPPRLPRPRPRPIYWPRP,-0.105
6,RRIRLRPPRLPRPRPRPVGHPRP,0.306
7,RRIRFRPPRLPRPRPRPWLDPRP,-0.0286
8,RRIRHRPPRLPRPRPRPGQNPRP,-0.226
9,RRIRNRPPRLPRPRPRPRFAPRP,0.164
10,RRIRKRPPRLPRPRPRPSLEPRP,0.286
11,RRIRQRPPRLPRPRPRPVYGPRP,-0.258
12,RRIRMRPPRLPRPRPRPWVGPRP,0.171
13,RRIRARPPRLPRPRPRPCQFPRP,-0.0602
14,RRIRSRPPRLPRPRPRPSCDPRP,-0.444
15,RRIRYRPPRLPRPRPRPQYNPRP,-1.49
16,RRIRQRPPRLPRPRPRPKQVPRP,0.0304
17,RRIRLRPPRLPRPRPRPMDRPRP,-0.0152
18,RRIRPRPPRLPRPRPRPWAPPRP,0.153
19,RRIRPRPPRLPRPRPRPCHVPRP,-0.0695
20,RRIRIRPPRLPRPRPRPGSPPRP,-0.19
21,RRIRDRPPRLPRPRPRPEVGPRP,0.00896
22,RRIRERPPRLPRPRPRPMHFPRP,-0.163
23,RRIRHRPPRLPRPRPRPQYRPRP,-0.0967
24,RRIRQRPPRLPRPRPRPCDHPRP,0.00902
25,RRIRTRPPRLPRPRPRPYTTPRP,-0.718

row,Sequence,shrunken log2 fold change
1,RRIRLRPPRLPRPRPRPRGGPRP,0.515
2,RRIRARPPRLPRPRPRPHTDPRP,-0.111
3,RRIRVRPPRLPRPRPRPDWLPRP,-0.0563
4,RRIRRRPPRLPRPRPRPSDFPRP,-0.116
5,RRIRYRPPRLPRPRPRPINYPRP,-1.12
6,RRIRLRPPRLPRPRPRPIYLPRP,-0.654
7,RRIRWRPPRLPRPRPRPHYFPRP,-0.087
8,RRIRSRPPRLPRPRPRPMERPRP,-0.0898
9,RRIRPRPPRLPRPRPRPMMKPRP,-0.173
10,RRIRARPPRLPRPRPRPLPVPRP,0.174
11,RRIRTRPPRLPRPRPRPKMDPRP,0.0289
12,RRIRHRPPRLPRPRPRPDTDPRP,-0.0683
13,RRIRTRPPRLPRPRPRPIEIPRP,-0.0171
14,RRIRTRPPRLPRPRPRPMACPRP,0.0855
15,RRIRARPPRLPRPRPRPMQQPRP,0.281
16,RRIRSRPPRLPRPRPRPNMSPRP,-0.315
17,RRIRQRPPRLPRPRPRPHIFPRP,0.0297
18,RRIRFRPPRLPRPRPRPLEHPRP,0.0403
19,RRIRVRPPRLPRPRPRPCRVPRP,0.00617
20,RRIRSRPPRLPRPRPRPPTLPRP,0.0631
21,RRIRQRPPRLPRPRPRPSPGPRP,0.194
22,RRIRERPPRLPRPRPRPDMHPRP,-0.0138
23,RRIRIRPPRLPRPRPRPESGPRP,-0.135
24,RRIRHRPPRLPRPRPRPLMIPRP,-0.498
25,RRIRFRPPRLPRPRPRPHRGPRP,0.0928
